Reference: publication PMC13598120

B1: Flag-tagged GNL3 (Flag-GNL3), wild type [human] / RAD51, endogenous [human (endogenous in U2OS and HeLa)] (parent)
chain 1: MKRPKLKKASKRMTCHKRYKIQKKVREHHRKLRKEAKKRGHKKPRKDPGVPNSAPFKEALLREAELRKQRLEELKQQQKLDRQKELEKKRKLETNPDIKPSNVEPMEKEFGLCKTENKAKSGKQNSKKLYCQELKKVIEASDVVLEVLDARDPLGCRCPQVEEAIVQSGQKKLVLILNKSDLVPKENLESWLNYLKKELPTVVFRASTKPKDKGKITKRVKAKKNAAPFRSEVCFGKEGLWKLLGGFQETCSKAIRVGVIGFPNVGKSSIINSLKQEQMCNVGVSMGLTRSMQVVPLDKQITIIDSPSFIVSPLNSSSALALRSPASIEVVKPMEAASAILSQADARQVVLKYTVPGYRNSLEFFTVLAQRRGMHQKGGIPNVEGAAKLLWSEWTGASLAYYCHPPTSWTPPPYFNESIVVDMKSGFNLEELEKNNAQSIRAIKGPHLANSILFQSSGLTNGIIEEKDIHEELPKRKERKQEEREDDKDSDQETVDEEVDENSSGMFAAEETGEALSEETTAGEQSTRSFILDKIIEEDDAYDFSTDYV
chain 2: MAMQMQLEANADTSVEEESFGPQPISRLEQCGINANDVKKLEEAGFHTVEAVAYAPKKELINIKGISEAKADKILAEAAKLVPMGFTTATEFHQRRSEIIQITTGSKELDKLLQGGIETGSITEMFGEFRTGKTQICHTLAVTCQLPIDRGGGEGKAMYIDTEGTFRPERLLAVAERYGLSGSDVLDNVAYARAFNTDHQTQLLYQASAMMVESRYALLIVDSATALYRTDYSGRGELSARQMHLARFLRMLLRLADEFGVAVVITNQVVAQVDGAAMFAADPKKPIGGNIIAHASTTRLYLRKGRGETRICKIYDSPCLPEAEAMFAINADGVGDAKD

Variants of: B1
Test: co-IP (anti-Flag IP, IB RAD51, band quantification)
Details: with RAD51, endogenous [human (endogenous in U2OS and HeLa)]; U2OS cells; 20 μM ETO, 0 h; read off a plot

| response (relative level) | Variant |
| --- | --- |
| 0.17 | chain 1 MKRPKLKKASKRMTCHKRYKIQKKVREHHRKLRKEAKKRGHKKPRKDPGVPNSAPFKEALLREAELRKQRLEELKQQQKLDRQKELEKKRKLETNPDIKPSNVEPMEKEFGLCKTENKAKSGKQNSKKLYCQELKKVIEASDVVLEVLDARDPLGCRCPQVEEAIVQSGQKKLVLILNKSDLVPKENLESWLNYLRKELPTVVFRASTKPKDKGKITKRVKAKKNAAPFRSEVCFGKEGLWKLLGGFQETCSKAIRVGVIGFPNVGKSSIINSLKQEQMCNVGVSMGLTRSMQVVPLDKQITIIDSPSFIVSPLNSSSALALRSPASIEVVKPMEAASAILSQADARQVVLKYTVPGYRNSLEFFTVLAQRRGMHQKGGIPNVEGAAKLLWSEWTGASLAYYCHPPTSWTPPPYFNESIVVDMKSGFNLEELEKNNAQSIRAIKGPHLANSILFQSSGLTNGIIEEKDIHEELPKRKERKQEEREDDKDSDQETVDEEVDENSSGMFAAEETGEALSEETTAGEQSTRSFILDKIIEEDDAYDFSTDYV [chain 1 K196R] |

Same assay, conditions: with RAD51, endogenous [human (endogenous in U2OS and HeLa)]; U2OS cells; 20 μM ETO, 2 h; read off a plot

| response (relative level) | Variant |
| --- | --- |
| 0.52 | chain 1 MKRPKLKKASKRMTCHKRYKIQKKVREHHRKLRKEAKKRGHKKPRKDPGVPNSAPFKEALLREAELRKQRLEELKQQQKLDRQKELEKKRKLETNPDIKPSNVEPMEKEFGLCKTENKAKSGKQNSKKLYCQELKKVIEASDVVLEVLDARDPLGCRCPQVEEAIVQSGQKKLVLILNKSDLVPKENLESWLNYLRKELPTVVFRASTKPKDKGKITKRVKAKKNAAPFRSEVCFGKEGLWKLLGGFQETCSKAIRVGVIGFPNVGKSSIINSLKQEQMCNVGVSMGLTRSMQVVPLDKQITIIDSPSFIVSPLNSSSALALRSPASIEVVKPMEAASAILSQADARQVVLKYTVPGYRNSLEFFTVLAQRRGMHQKGGIPNVEGAAKLLWSEWTGASLAYYCHPPTSWTPPPYFNESIVVDMKSGFNLEELEKNNAQSIRAIKGPHLANSILFQSSGLTNGIIEEKDIHEELPKRKERKQEEREDDKDSDQETVDEEVDENSSGMFAAEETGEALSEETTAGEQSTRSFILDKIIEEDDAYDFSTDYV [chain 1 K196R] |

Same assay, conditions: with RAD51, endogenous [human (endogenous in U2OS and HeLa)]; U2OS cells; 20 μM ETO, 8 h; read off a plot

| response (relative level) | Variant |
| --- | --- |
| 0.31 | chain 1 MKRPKLKKASKRMTCHKRYKIQKKVREHHRKLRKEAKKRGHKKPRKDPGVPNSAPFKEALLREAELRKQRLEELKQQQKLDRQKELEKKRKLETNPDIKPSNVEPMEKEFGLCKTENKAKSGKQNSKKLYCQELKKVIEASDVVLEVLDARDPLGCRCPQVEEAIVQSGQKKLVLILNKSDLVPKENLESWLNYLRKELPTVVFRASTKPKDKGKITKRVKAKKNAAPFRSEVCFGKEGLWKLLGGFQETCSKAIRVGVIGFPNVGKSSIINSLKQEQMCNVGVSMGLTRSMQVVPLDKQITIIDSPSFIVSPLNSSSALALRSPASIEVVKPMEAASAILSQADARQVVLKYTVPGYRNSLEFFTVLAQRRGMHQKGGIPNVEGAAKLLWSEWTGASLAYYCHPPTSWTPPPYFNESIVVDMKSGFNLEELEKNNAQSIRAIKGPHLANSILFQSSGLTNGIIEEKDIHEELPKRKERKQEEREDDKDSDQETVDEEVDENSSGMFAAEETGEALSEETTAGEQSTRSFILDKIIEEDDAYDFSTDYV [chain 1 K196R] |
